Substitutions are numbered along the chain they refer to.
B1: 77A (VR11851) (antibody, V domains shown)
VH: QSVEESGGRLVTPGTPLTLTCTVSGFSLSSYAMSWVRQAPGKGLEWIGIISSSGTTYYASWAKGRFTISKTSTTVDLKITSPTTEDTATYFCARVDYYSSGWGGLWGPGTLVTVSS
VL: AVEMTQTPASMSAAVGGTVTIKCQASEDIYSNLAWYQQKPGQPPKLLIYGASTLASGVPSRFKGSGSGTEYTLTISGVQCDDAATYYCQCTYDTSSYGNTFGGGTEMVVE
notes: also called OX77a; antibody 77a
B2: 111 (VR12113) (antibody, V domains shown)
VH: QSVEESGGRLVTPGTPLTLTCTASGFSLSTYAMSWVRQAPGKGLEWIGIISSSGSTYYASWAKGRFTISKTSTTVDLKITSPTTEDTATYFCARETWYWLDLWGQGTLVTVSS
VL: B1 VL with M11V, K22N, T91A, T94S, N99T, T100P, M107V, E110K
notes: also called OX111
B3: 116 (VR12117) (antibody, V domains shown)
VH: QSVEESGGRLVTPGTPLTLTCTVSGFSLSNYAMSWVRQAPGKGLEWIGIIYTTGFTYYASWVKGRFTISKTSTTVDLKITSPTTEDTATYFCARGLATYVSPPTRLDLWGQGTLVTVSS
VL: AQVLTQTPSPVSAAVGGTVTINCQASQSIYNSKNLAWYQQKPGQPPKLLIYSASTLASGVPSRFKGSGSGTQFTLTISDLECDDAATYYCQGEFSCSSVDCATFGGGTEVVVK
notes: also called OX116
B4: 110 (VR12112) (antibody, V domains shown)
VH: QSVEESGGRLVTPGTPLTLTCTVSGFSLSSYAMIWVRQAPGKGLEWIGIINSSDNTHYATWAKGRFTISKTSTTVDLKITSPTTEDTATYFCARDPYDYGYGWYFDLWGPGTLVTVSS
VL: AQVLTQTPSPVSAAVGGTVTINCQASQSVFNNKNLAWYQQKPGQPPKLLIYKASTLASGVSSRFKGSGSGTQFALTISGVQCDDAATYYCQGEFSCSSTDCVTFGGGTEVVVK
notes: also called OX110; antibody 110

biological target: T1, human CD1a protein (pool B) (human, UniProt P06126 18-295, limits assumed); assay: ELISA, 0.1 µg/ml antibody
T1 construct: Recombinant protein of the ELISA (coated) and the Biacore T200 titration; whole entry named; also called human CD1a pool B; full length CD1a
T1 sequence (P06126 18-295 limits assumed): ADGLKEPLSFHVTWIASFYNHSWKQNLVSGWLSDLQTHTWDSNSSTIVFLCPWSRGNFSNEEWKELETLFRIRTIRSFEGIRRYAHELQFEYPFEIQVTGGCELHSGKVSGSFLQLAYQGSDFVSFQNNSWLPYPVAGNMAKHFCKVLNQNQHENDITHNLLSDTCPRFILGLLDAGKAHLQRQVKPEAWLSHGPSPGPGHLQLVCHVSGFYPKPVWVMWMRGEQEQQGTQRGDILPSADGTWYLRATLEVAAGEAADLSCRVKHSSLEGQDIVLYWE
Procedure: (§1) CD1a-specific antibodies were identified by ELISA. […] 20 μl/well of peroxidase-conjugated goat anti-species IgG Fc-specific F(ab′)2 fragment (Jackson ImmunoResearch), diluted 1:5000 in block buffer was added and incubated at room temperature for 1 hour, followed by washing with wash buffer.
(§2) The antibodies were titrated through a dilution series and compared to a control rabbit IgG antibody.

Row | Binder | Optical Density (OD)
1 | B1 | 1.36 OD
2 | B2 | 1.06 OD
3 | B3 | 1.07 OD

Biological target: T2, Cynomolgus monkey CD1a protein (Cynomolgus monkey)
T2 chain: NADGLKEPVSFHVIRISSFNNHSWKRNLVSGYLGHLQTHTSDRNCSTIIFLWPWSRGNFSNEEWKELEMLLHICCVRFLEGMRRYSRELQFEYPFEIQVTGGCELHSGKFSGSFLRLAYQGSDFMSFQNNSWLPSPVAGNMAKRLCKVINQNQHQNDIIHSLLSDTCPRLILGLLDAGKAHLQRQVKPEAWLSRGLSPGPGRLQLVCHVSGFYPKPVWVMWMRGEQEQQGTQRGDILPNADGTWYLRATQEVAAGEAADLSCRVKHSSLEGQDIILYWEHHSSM
Assay: ELISA, 0.01 µg/ml antibody

Row | Binder | Optical Density (OD)
4 | B1 | 0.1 OD
5 | B4 | 0.22 OD
6 | B2 | 0.48 OD
7 | B3 | 0.07 OD

biological target: T1, human CD1a protein (pool B); assay: ELISA, 10 µg/ml antibody
Procedure: as §1, §2

Row | Binder | Optical Density (OD)
8 | B1 | 1.34 OD
9 | B4 | 1.28 OD
10 | B2 | 1.12 OD
11 | B3 | 1.18 OD

biological target: T3, human CD1a expressed on cells (human, UniProt P06126 17-327; P61769 21-119); assay: flow cytometry, C1R cells, 100 µg/ml antibody
T3 construct: also called HEK - CD1a; C1R - CD1a
Procedure: (§3) Binding to proteins expressed on HEK, C1R and MOLT4 cell lines was assessed. […] The C1R-CD1a, C1R-empty vector and MOLT4 cell lines were washed in 1×PBS on the day required. All cell lines were counted and resuspended in 1×PBS and then stained for 30 minutes at 37° C. using the DiI or DiO cellular stains (Invitrogen). Cells were washed with flow cytometry buffer (1% bovine serum albumin, 2 mM EDTA and 0.1% sodium azide in PBS) before mixing 2 DiI-stained and DiO-stained populations together. The cells (20 μl/well) were then added to dilutions of antibody sample (B cell culture supernatant, TAP supernatant, clone supernatant, purified antibody solution) (20 μl/well) and incubated for 1 hour at 4° C. in a flow cytometry assay plate, before being washed with flow cytometry buffer. 10 μl/well of Alexafluor647-conjugated goat anti-species IgG Fc-specific F(ab′)2 fragment (Jackson ImmunoResearch), diluted 1:2500 in flow cytometry buffer, was added and incubated at 4° C. for 30 minutes, followed by washing with wash buffer. The fluorescence intensity was then measured on an iQue screener PLUS.
(§4) Binding was quantified as fold change in fluorescence intensity geomean over background assessed by flow cytometry.

Row | Binder | Fluorescence Intensity Geomean (normalized to background)
12 | B1 | 0.9 fold over background
13 | B4 | 4.8 fold over background
14 | B2 | 7.3 fold over background
15 | B3 | 11.9 fold over background

biological target: Cynomolgus monkey CD1a expressed on HEK-293 cells (Cynomolgus monkey, UniProt A0A2K5VQ68 17-326); assay: flow cytometry, HEK-293 cells, 0.1 µg/ml antibody
Sequence (A0A2K5VQ68 entry or part of it): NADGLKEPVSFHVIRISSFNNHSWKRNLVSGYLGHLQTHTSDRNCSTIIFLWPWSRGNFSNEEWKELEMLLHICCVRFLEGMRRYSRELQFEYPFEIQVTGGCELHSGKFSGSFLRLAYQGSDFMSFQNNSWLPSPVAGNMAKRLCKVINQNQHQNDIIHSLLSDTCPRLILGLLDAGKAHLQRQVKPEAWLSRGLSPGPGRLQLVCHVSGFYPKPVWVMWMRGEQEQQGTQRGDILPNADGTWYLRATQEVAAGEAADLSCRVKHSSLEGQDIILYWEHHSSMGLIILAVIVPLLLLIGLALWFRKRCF
Procedure: as §3, §4

Row | Binder | Fluorescence Intensity Geomean (normalized to background)
16 | B1 | 5.7 fold over background
17 | B4 | 3.3 fold over background
18 | B2 | 25.8 fold over background
19 | B3 | 1 fold over background

biological target: T4, human CD1b expressed on HEK-293 cells (human, UniProt P29016 18-333; P61769 21-119); assay: flow cytometry, HEK-293 cells, 100 µg/ml antibody
T4 construct: also called HEK - CD1b
Procedure: as §3
(§5) HEK-293 cells were transiently transfected with human CD1a, CD1b, CD1c or CD1d and co-transfected with human β2M.

Row | Binder | Fluorescence Intensity Geomean (normalized to background)
20 | B1 | 1 fold over background
21 | B4 | 1.1 fold over background
22 | B2 | 1.1 fold over background
23 | B3 | 1.1 fold over background

biological target: T3, human CD1a expressed on cells; assay: flow cytometry, HEK-293 cells, 100 µg/ml antibody
Procedure: as §3, §5

Row | Binder | Fluorescence Intensity Geomean (normalized to background)
24 | B1 | 4.1 fold over background
25 | B4 | 5.9 fold over background
26 | B2 | 4.3 fold over background
27 | B3 | 3.9 fold over background

biological target: T5, human CD1d expressed on HEK-293 cells (human, UniProt P15813 20-335; P61769 21-119); assay: flow cytometry, HEK-293 cells, 100 µg/ml antibody
T5 construct: also called HEK - CD1d
Procedure: as §3, §5

Row | Binder | Fluorescence Intensity Geomean (normalized to background)
28 | B1 | 1 fold over background
29 | B4 | 1.1 fold over background
30 | B2 | 1.1 fold over background
31 | B3 | 1 fold over background

biological target: T6, human CD1c expressed on HEK-293 cells (human, UniProt P29017 18-333; P61769 21-119); assay: flow cytometry, HEK-293 cells, 100 µg/ml antibody
T6 construct: also called HEK - CD1c
Procedure: as §3, §5

Row | Binder | Fluorescence Intensity Geomean (normalized to background)
32 | B1 | 0.9 fold over background
33 | B4 | 1 fold over background
34 | B2 | 1.1 fold over background
35 | B3 | 1 fold over background

biological target: T3, human CD1a expressed on cells; assay: flow cytometry, C1R cells, 0.316 µg/ml antibody
Procedure: as §3, §4

Row | Binder | Fluorescence Intensity Geomean (normalized to background)
36 | B1 | 19 fold over background
37 | B4 | 29.7 fold over background
38 | B2 | 28.8 fold over background
39 | B3 | 27.5 fold over background

biological target: T1, human CD1a protein (pool B); assay: ELISA, 100 µg/ml antibody
Procedure: as §1, §2

Row | Binder | Optical Density (OD)
40 | B1 | 1.39 OD
41 | B4 | 1.23 OD
42 | B2 | 1.12 OD
43 | B3 | 1.15 OD

biological target: T3, human CD1a expressed on cells; assay: flow cytometry, MOLT4 cells, 0.0316 µg/ml antibody
Procedure: (§6) CD1a-specific antibodies were identified by flow cytometry. Binding to proteins expressed on HEK, C1R and MOLT4 cell lines was assessed. […] The C1R-CD1a, C1R-empty vector and MOLT4 cell lines were washed in 1×PBS on the day required. All cell lines were counted and resuspended in 1×PBS and then stained for 30 minutes at 37° C. using the DiI or DiO cellular stains (Invitrogen). Cells were washed with flow cytometry buffer (1% bovine serum albumin, 2 mM EDTA and 0.1% sodium azide in PBS) before mixing 2 DiI-stained and DiO-stained populations together. The cells (20 μl/well) were then added to dilutions of antibody sample (B cell culture supernatant, TAP supernatant, clone supernatant, purified antibody solution) (20 μl/well) and incubated for 1 hour at 4° C. in a flow cytometry assay plate, before being washed with flow cytometry buffer. 10 μl/well of Alexafluor647-conjugated goat anti-species IgG Fc-specific F(ab′)2 fragment (Jackson ImmunoResearch), diluted 1:2500 in flow cytometry buffer, was added and incubated at 4° C. for 30 minutes, followed by washing with wash buffer. The fluorescence intensity was then measured on an iQue screener PLUS.
as §4

Row | Binder | Fluorescence Intensity Geomean (normalized to background)
44 | B1 | 8.7 fold over background
45 | B4 | 1.6 fold over background
46 | B2 | 12.4 fold over background
47 | B3 | 14.9 fold over background

biological target: T1, human CD1a protein (pool B); assay: ELISA, 0.0316 µg/ml antibody
Procedure: as §1, §2

Row | Binder | Optical Density (OD)
48 | B1 | 1.25 OD
49 | B4 | 0.81 OD
50 | B2 | 1.1 OD
51 | B3 | 0.95 OD

biological target: T4, human CD1b expressed on HEK-293 cells; assay: flow cytometry, HEK-293 cells, 0.316 µg/ml antibody
Procedure: as §3, §5

Row | Binder | Fluorescence Intensity Geomean (normalized to background)
52 | B1 | 1.1 fold over background
53 | B4 | 1 fold over background
54 | B2 | 1 fold over background
55 | B3 | 1 fold over background

biological target: T3, human CD1a expressed on cells; assay: as above
Procedure: as §3, §5

Row | Binder | Fluorescence Intensity Geomean (normalized to background)
56 | B1 | 58.6 fold over background
57 | B4 | 38.3 fold over background
58 | B2 | 30.8 fold over background
59 | B3 | 36.5 fold over background

biological target: T6, human CD1c expressed on HEK-293 cells; assay: as above
Procedure: as §3, §5

Row | Binder | Fluorescence Intensity Geomean (normalized to background)
60 | B1 | 1 fold over background
61 | B4 | 0.9 fold over background
62 | B2 | 1 fold over background
63 | B3 | 1.1 fold over background

Biological target: T2, Cynomolgus monkey CD1a protein
Assay: ELISA, 0.1 µg/ml antibody

Row | Binder | Optical Density (OD)
64 | B1 | 0.24 OD
65 | B4 | 0.53 OD
66 | B2 | 0.66 OD
67 | B3 | 0.07 OD

biological target: chimeric CD1a pool B protein [human CD1a lipid binding domain, mouse CD1d Ig domain] (human; mouse, UniProt P06126 18-201; P11609 205-297, limits assumed); assay: ELISA, 3.16 µg/ml antibody
Sequence (P06126 other isoform, or with tags, fused parts or gaps mutant limits assumed): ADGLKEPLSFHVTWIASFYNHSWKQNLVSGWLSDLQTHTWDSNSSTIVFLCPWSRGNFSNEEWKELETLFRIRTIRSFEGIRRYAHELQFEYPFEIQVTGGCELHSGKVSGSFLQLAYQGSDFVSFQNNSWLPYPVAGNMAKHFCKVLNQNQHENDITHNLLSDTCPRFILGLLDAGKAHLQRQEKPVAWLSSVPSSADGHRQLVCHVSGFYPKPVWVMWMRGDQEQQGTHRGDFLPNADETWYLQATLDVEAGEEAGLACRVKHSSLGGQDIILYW
Procedure: as §1
The antibodies were titrated through a dilution series and compared to a control rabbit IgG antibody. […] Data shown for purified antibodies.

Row | Binder | Optical Density (OD)
68 | B1 | 1.28 OD
69 | B4 | 1.53 OD
70 | B2 | 1.41 OD
71 | B3 | 1.38 OD

biological target: T3, human CD1a expressed on cells; assay: flow cytometry, MOLT4 cells, 10 µg/ml antibody
Procedure: as §6, §4

Row | Binder | Fluorescence Intensity Geomean (normalized to background)
72 | B1 | 4.1 fold over background
73 | B4 | 14.7 fold over background
74 | B2 | 9.3 fold over background
75 | B3 | 11.7 fold over background

biological target: T1, human CD1a protein (pool B); assay: ELISA, 1 µg/ml antibody
Procedure: as §1, §2

Row | Binder | Optical Density (OD)
76 | B1 | 1.34 OD
77 | B2 | 1.14 OD
78 | B3 | 1.15 OD

biological target: T3, human CD1a expressed on cells; assay: flow cytometry, C1R cells, 10 µg/ml antibody
Procedure: as §3, §4

Row | Binder | Fluorescence Intensity Geomean (normalized to background)
79 | B1 | 2.3 fold over background
80 | B4 | 8.3 fold over background
81 | B2 | 11.7 fold over background
82 | B3 | 16.9 fold over background

biological target: T3, human CD1a expressed on cells; assay: flow cytometry, MOLT4 cells, 1 µg/ml antibody
Procedure: as §6, §4

Row | Binder | Fluorescence Intensity Geomean (normalized to background)
83 | B1 | 13.5 fold over background
84 | B4 | 33 fold over background
85 | B2 | 31.2 fold over background
86 | B3 | 30.6 fold over background

biological target: T4, human CD1b expressed on HEK-293 cells; assay: flow cytometry, HEK-293 cells, 1 µg/ml antibody
Procedure: as §3, §5

Row | Binder | Fluorescence Intensity Geomean (normalized to background)
87 | B1 | 1.1 fold over background
88 | B4 | 1.1 fold over background
89 | B2 | 1 fold over background
90 | B3 | 1.1 fold over background

biological target: T3, human CD1a expressed on cells; assay: flow cytometry, HEK-293 cells, 1 µg/ml antibody
Procedure: as §3, §5

Row | Binder | Fluorescence Intensity Geomean (normalized to background)
91 | B1 | 41.9 fold over background
92 | B4 | 49.2 fold over background
93 | B2 | 42 fold over background
94 | B3 | 48.2 fold over background

biological target: T5, human CD1d expressed on HEK-293 cells; assay: flow cytometry, HEK-293 cells, 1 µg/ml antibody
Procedure: as §3, §5

Row | Binder | Fluorescence Intensity Geomean (normalized to background)
95 | B1 | 1 fold over background
96 | B4 | 1.1 fold over background
97 | B2 | 1.1 fold over background
98 | B3 | 1 fold over background

biological target: T6, human CD1c expressed on HEK-293 cells; assay: flow cytometry, HEK-293 cells, 1 µg/ml antibody
Procedure: as §3, §5

Row | Binder | Fluorescence Intensity Geomean (normalized to background)
99 | B1 | 1 fold over background
100 | B4 | 1.1 fold over background
101 | B2 | 1.1 fold over background
102 | B3 | 1.1 fold over background

From patent US20250289893A1 (OXFORD UNIVERSITY INNOVATION, published 2025)
